Residue numbers refer to the chain shown, from its start. In names and notes the source's numbering stands. Values belong to the binder of their own block, whether it stands above or below them.
Key:
[1] = biological target: recombinant human FAP protein (Sino Biological, Cat# 10464-H07H) (human) (UniProt Q12884); assay: ELISA on immobilized human FAP; antibody stored at 40 °C for 2 weeks, relative to 0 weeks
[2] = biological target: recombinant human FAP protein (Sino Biological, Cat# 10464-H07H) (human) (UniProt Q12884); assay: ELISA on immobilized human FAP; antibody stored at 40 °C for 4 weeks, relative to 0 weeks
[3] = biological target: T1, cynomolgus FAP protein expressed on 293T cells (293T-cynomolgus FAP) (cynomolgus, UniProt Q12884 1-760 (human entry)); assay: flow cytometry on 293T-cynomolgus FAP cells
T1 sequence: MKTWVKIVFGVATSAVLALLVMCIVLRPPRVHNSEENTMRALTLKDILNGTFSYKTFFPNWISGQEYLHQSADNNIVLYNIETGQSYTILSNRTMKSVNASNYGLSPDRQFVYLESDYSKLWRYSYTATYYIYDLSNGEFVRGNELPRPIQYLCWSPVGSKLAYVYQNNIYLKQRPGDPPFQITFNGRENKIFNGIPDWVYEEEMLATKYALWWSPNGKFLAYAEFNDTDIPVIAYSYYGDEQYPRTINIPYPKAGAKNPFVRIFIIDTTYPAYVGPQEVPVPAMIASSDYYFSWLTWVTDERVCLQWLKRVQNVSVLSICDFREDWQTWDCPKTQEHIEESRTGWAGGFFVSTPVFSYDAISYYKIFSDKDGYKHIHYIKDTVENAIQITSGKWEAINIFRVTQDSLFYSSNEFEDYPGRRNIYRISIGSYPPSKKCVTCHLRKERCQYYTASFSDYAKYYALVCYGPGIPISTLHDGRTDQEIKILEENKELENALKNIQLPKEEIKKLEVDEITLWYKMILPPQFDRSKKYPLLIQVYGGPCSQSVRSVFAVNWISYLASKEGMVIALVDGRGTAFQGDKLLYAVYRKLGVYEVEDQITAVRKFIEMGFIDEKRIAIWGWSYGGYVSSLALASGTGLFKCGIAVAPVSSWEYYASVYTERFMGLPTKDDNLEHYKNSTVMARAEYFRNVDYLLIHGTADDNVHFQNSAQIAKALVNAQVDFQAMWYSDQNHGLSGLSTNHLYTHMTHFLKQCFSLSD

[4] = biological target: T2, human FAP protein expressed on 293T cells (293T-human FAP) (human, UniProt Q12884 1-760); assay: flow cytometry on 293T-human FAP cells
T2 sequence: T1 sequence with P29S, F261V, D417E

[5] = biological target: recombinant human FAP protein (Sino Biological, Cat# 10464-H07H) (human) (UniProt Q12884); assay: ELISA on immobilized human FAP; antibody stored at 40 °C for 0 weeks
[6] = biological target: T3, recombinant human FAP protein (Sino Biological, Cat# 10464-H07H) (human, UniProt Q12884 26-760); assay: ELISA, human FAP protein immobilized on plate
T3 construct: Bought protein
T3 sequence: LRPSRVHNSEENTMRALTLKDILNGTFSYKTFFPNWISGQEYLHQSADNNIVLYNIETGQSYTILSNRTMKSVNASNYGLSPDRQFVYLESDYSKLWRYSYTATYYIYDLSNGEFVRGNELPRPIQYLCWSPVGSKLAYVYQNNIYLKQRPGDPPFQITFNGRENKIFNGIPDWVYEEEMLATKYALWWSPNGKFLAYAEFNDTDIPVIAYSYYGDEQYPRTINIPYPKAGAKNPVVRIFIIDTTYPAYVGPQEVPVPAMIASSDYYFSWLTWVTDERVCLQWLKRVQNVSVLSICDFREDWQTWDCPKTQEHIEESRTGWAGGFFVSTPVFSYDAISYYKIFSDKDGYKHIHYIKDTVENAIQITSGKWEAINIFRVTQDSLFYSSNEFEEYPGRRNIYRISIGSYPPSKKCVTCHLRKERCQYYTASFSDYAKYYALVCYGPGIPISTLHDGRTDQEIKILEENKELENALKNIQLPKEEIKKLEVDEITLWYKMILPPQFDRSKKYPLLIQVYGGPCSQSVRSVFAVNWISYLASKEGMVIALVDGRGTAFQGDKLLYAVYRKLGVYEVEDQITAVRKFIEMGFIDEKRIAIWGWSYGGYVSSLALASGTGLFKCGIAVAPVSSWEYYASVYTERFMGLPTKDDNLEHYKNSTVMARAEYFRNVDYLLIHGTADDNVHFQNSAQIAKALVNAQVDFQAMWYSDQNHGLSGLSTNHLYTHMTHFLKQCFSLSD

ELISA Relative activity [1]: 93.8% | ELISA Relative activity [2]: 89.9% | binding result [3]: binds | binding result [4]: binds | ELISA Relative activity [5]: 100%
B1: humanized anti-FAP antibody huF19-LG (antibody, human IgG1, kappa, V domains shown)
VH: QVQLVQSGAEVKKPGASVKVSCKASGYTFTEYTIHWVRQATGQGLEWIGGINPNNGIPNYNQKFKGRATMTVGTSISTAYMELSSLRSEDTAVYFCARRRIAYGYDEGHAMDYWGQGTLVTVSS
VL: DIQMTQSPSSLSASVGDRVTITCKSSQSLLYSRNQKNYLAWFQQKPGKAPKLLIFWASTRESGVPSRFTGSGFGTDFTLTISSLQPEDFATYYCQQYFSYPLTFGQGTKLEIKR
notes: Full-length human IgG1/kappa; expressed in ExpiCHO-S

binding result [6]: binds | binding result [3]: binds | binding result [4]: binds
B2: sibrotuzumab (humanized reference anti-FAP antibody) (antibody, human IgG1, kappa, V domains shown)
VH: B1 VH with A24T, G26R, T41P, G44R, A68V, M70I, G73D, I76A, F95Y
VL: DIVMTQSPDSLAVSLGERATINCKSSQSLLYSRNQKNYLAWYQQKPGQPPKLLIFWASTRESGVPDRFSGSGFGTDFTLTISSLQAEDVAVYYCQQYFSYPLTFGQGTKVEIKR
notes: Full-length human IgG1/kappa

binding result [3]: binds | binding result [4]: binds
B3: mutant humanized FAP antibody huF19-LG-NGR (antibody, human IgG1, kappa, V domains shown)
VH: B1 VH with G56R
VL: B1 VL
notes: huF19-LG with G56R (Kabat) in HCDR2; also called optimized FAP antibody

From EP4578877A1 (Nanjing Leads Biolabs Co., Ltd., dated 2025)
